# Experimental data reported in article PMC11216086, “The structure of TRAF7 coiled-coil trimer provides insight into its function in zebrafish embryonic development” (Journal of Molecular Cell Biology, 2024).
# B1: TrxA-tagged wild-type human TRAF7 CC (fragment 270–379 aa) [human] / itself (parent)
# chain: GNQDTYETHLETCRFEGLKEFLQQTDDRFHEMHVALAQKDQEIAFLRSMLGKLSEKIDQLEKSLELKFDVLDENQSKLSEDLMEFRRDASMLNDELSHINARLNMGILGS
# Variants of: B1
# Assay: SEC-MALS (self-association / trimerisation)
# Details: with itself; TrxA-tagged at the N-terminus; theoretical molecular weight of the WT trimer is 84.9 kDa
row,screen value,Variant
1,49.5 kDa,chain 1 L53R
2,63.5 kDa,chain 1 L78R
